Measured values published in patent US20250277030A1, “ANTI-NAPI2B ANTIBODIES AND METHODS OF USE” (Zymeworks BC Inc., priority 2022, published 2025).

Tests used:
[1] = AC-SINS self-aggregation propensity; assay type: physicochemical; details: 0.05 mg/mL in PBS pH 7.4; cutoff 10 nm = high self-aggregation propensity
Protocol: The isoelectric point was measured by capillary isoelectric focusing (cIEF), the propensity for self-aggregation was measured by Affinity-capture self-interaction nanoparticle spectroscopy (AC-SINS) and non-specific binding was measured by NS-ELISA, as described below.
AC-SINS method was carried out in a 384-well plate format (Corning®#3702). Initially, 20 nm gold nanoparticles (Ted Pella, Inc., #15705) washed with 0.22 μm filtered Gibco™ Distilled Water were coated with a mixture of capture antibody—80% AffiniPure Goat Anti-Human IgG (H+L) (Jackson ImmunoResearch Laboratories® #109-005-088), and the non-capture antibody −20% ChromPure Goat IgG, whole molecule (Jackson ImmunoResearch Laboratories® #005-000-003), that were initially buffer exchanged into 20 mM sodium acetate pH 4.3 and diluted to 0.4 mg/mL. […] The absorbance was read from 450-700 nm at 1 nm increments, and a Microsoft Excel macro was used to identify the max absorbance, smooth the data, and fit the data using a second-order polynomial. The Alambda (nm) was calculated based on the smoothed max absorbance of the average blank (PBS alone) subtracted from the smoothed max absorbance of the antibody sample to determine the antibody AC-SINS score. Antibody-antibody interactions directly correlate with the shift in maximum absorbance wavelength of gold nanoparticles coated with the antibody of interest. […]

[2] = molecular target: T1, mouse NaPi2b (Mus musculus, UniProt Q9DBP0); assay: Flow cytometry binding to HEK293-6e cells transfected with mouse NaPi2b (Example 5); details: transfected HEK293-6e cells, 18-24 hours at 4° C.
T1 construct: expressed in transfected cells; host or cells: HEK293-6e
T1 sequence (Q9DBP0 1-697): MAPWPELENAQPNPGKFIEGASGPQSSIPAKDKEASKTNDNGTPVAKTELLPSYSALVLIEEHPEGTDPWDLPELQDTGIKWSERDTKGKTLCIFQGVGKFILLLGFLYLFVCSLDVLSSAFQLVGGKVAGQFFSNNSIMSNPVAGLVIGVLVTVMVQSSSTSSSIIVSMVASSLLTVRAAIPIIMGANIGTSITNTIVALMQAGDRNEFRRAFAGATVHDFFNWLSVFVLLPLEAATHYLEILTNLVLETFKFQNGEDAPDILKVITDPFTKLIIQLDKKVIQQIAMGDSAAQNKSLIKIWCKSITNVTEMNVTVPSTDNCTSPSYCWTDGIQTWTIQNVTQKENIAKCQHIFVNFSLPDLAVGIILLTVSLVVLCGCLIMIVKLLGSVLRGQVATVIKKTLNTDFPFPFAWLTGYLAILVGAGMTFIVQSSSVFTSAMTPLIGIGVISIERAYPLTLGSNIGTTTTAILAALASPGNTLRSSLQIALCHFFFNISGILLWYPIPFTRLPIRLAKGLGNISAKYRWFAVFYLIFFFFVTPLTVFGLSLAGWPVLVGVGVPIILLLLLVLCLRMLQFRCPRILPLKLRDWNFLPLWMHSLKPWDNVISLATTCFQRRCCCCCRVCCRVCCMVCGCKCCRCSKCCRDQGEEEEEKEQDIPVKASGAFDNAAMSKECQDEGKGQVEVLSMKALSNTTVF
Protocol: The binding cross-reactivity of humanized antibody variant v29456 to human, cynomolgus and mouse NaPi2b was assessed by flow cytometry using HEK293-6e transfected cells.
Briefly, HEK293-6e cells were transfected for ˜24 hours to transiently express human NaPi2b, cynomolgus or mouse NaPi2b, at 1 μg of DNA per 1 million cells. Following transfection, 50,000 cells per well were seeded in V-bottom 96-well plates and incubated with 200 nM of primary antibody for 18-24 hours at 4° C. to prevent internalization. Post-incubation, cells were washed and stained with anti-Human IgG Fc AF647 conjugate (Jackson Immuno Research Labs, West Grove, PA, Cat. No. 109-605-098, Lot. No. 124868) at 4° C. for 1 hour. Following staining and washing, fluorescence was detected by flow cytometry on BD LSRFortessa™ Cell Analyzer (BD Biosciences, Franklin Lake, NJ) with 10,000 minimum events collected per well. The AF647/APC-A GeoMean (fluorescence signal geometric mean, proportional to anti-Human AF647 binding) was calculated for the live singlet cell population for each primary antibody using FlowJo™ v8 software (BD Biosciences, Franklin Lake, NJ). The Bmax and Kd of each primary antibody were calculated using GraphPad Prism Version 9 (GraphPad Software, San Diego, CA)

Bmax (APC-A GeoMean), Ms NaPi2b [2]: 2,062 APC-A GeoMean
Kd ([2]; highest antibody concentration 200 nM, read-out: Apparent Kd (nM), Ms NaPi2b): 10.6 nM
B1: v29456: humanized anti-NaPi2b IgG1/kappa antibody H1L2; VH SEQ ID NO:24, VL SEQ ID NO:29 (antibody, V domains shown)
VH: QVQLVQSGAEVKKPGASVKVSCKASGFTFTSYNVHWVRQAPGQGLEWMGAISPGNGDLSYAQKFQGRVTMTRDTSTSTVYMELSSLRSEDTAVYYCARGRTGMGAVDYWGQGTLVTVSS
VL: DVQMTQSPSSLSASVGDRVTITCRASQDVYSYLNWYQQKPGKAVKLLIYYTSRLQSGVPSRFSGSGSGTDYTLTISSLQPEDFATYYCQQYNIFPWTFGQGTKLEIK
modifications: v29452, v29456, v29460 VH (H1); v29453, v29454, v29455, v29456 VL (L2)
AC-SINS Δlambda (nm) [1]: 2.5 nm
